Reference: patent CN111378040A (UNIV SHENZHEN, dated 2020)
Where a chain is given by its changes, count along the chain named.

B1: A12嵌合抗体 (antibody, human IgG1, kappa, V domains shown)
VH: QVQLQQSGPELVKPGASVRMSCKAAGYTITSYLMHWVKQRPGQDLEWIGYINPYNDGTKYNEKFKDKATLTSDKSSSTAYMELSSLTSEDSAVYYCARSDVYYGVRFAYWGQGTLVTVSA
VL: DIVLTQSPAIMSASPGEKVTMTCSASSSVSYMHWYQQKSGTSPKRWIYDTSKLASGVPARFSGSGSGTSYSLTISSMEAEDAAIYYCQQWSSNPPTFGAGTKLELKR
notes: Chimeric antibody expressed in 293F cells and purified on Protein A; also called A12抗体; ROR2-A12
B2: B30嵌合抗体 (antibody, human IgG1, kappa, V domains shown)
VH: B1 VH with I29F, M34I
VL: DIVLTQSPVIMSASPGEKVTMTCSASSSISYMYWYQQKPGSSPRLLIYDTSILASGVPVRFSGSGSGTSYSLTISRMEAEDAATYYCQQWSSYPFTFGSGTKLEIKR
notes: Chimeric antibody expressed in 293F cells and purified on Protein A; also called B30抗体; ROR2-B30
B3: B22嵌合抗体 (antibody, human IgG1, kappa, V domains shown)
VH: QVQLQQPGAALVKPGASVKLSCKASGYTFTNYWIQWMKQRPGQGLEWIGEINPSNGRTDYNEKFKNRATLTVDNSSTTAYMQLSSLTSEDSAVYYCANYRPGYWGQGTSVTVSS
VL: DIVMTQSQKFMSTSVGDRVSVTCKASQNVGTNVAWFQQKPGQSPKPLIYLASYRYSGVPDRFTGSGSGTDFTLTISNVQSEDLAEYFCQQYNSYPLTFGGGTNLEIKR
notes: Chimeric antibody expressed in 293F cells and purified on Protein A; also called B22抗体; SA120-2

biological target: T1, 带有His标签的人源的ROR2胞外端 (human, UniProt Q01974 34-403); assay: immunoblot, lysate of 293T-ROR2-KO cells transfected with His-tagged human ROR2ex, 5ug/ml
T1 construct: extracellular domain; Denatured cell lysate in an immunoblot; it is put last only for want of a statement; also called human ROR2ex; humanROR2ex; not shown: His tag
T1 sequence (Q01974 34-403): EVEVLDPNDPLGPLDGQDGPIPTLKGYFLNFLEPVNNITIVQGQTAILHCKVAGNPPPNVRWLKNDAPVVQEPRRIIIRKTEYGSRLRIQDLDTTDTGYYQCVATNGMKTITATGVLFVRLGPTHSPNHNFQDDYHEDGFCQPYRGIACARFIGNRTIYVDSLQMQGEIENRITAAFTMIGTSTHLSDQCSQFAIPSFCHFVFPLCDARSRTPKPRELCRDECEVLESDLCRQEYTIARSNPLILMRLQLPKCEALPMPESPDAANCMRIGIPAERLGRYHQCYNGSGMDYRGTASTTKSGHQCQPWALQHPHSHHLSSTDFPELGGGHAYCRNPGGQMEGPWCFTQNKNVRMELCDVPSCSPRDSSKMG

| binding result | Binder |
| --- | --- |
| binds | B1 |
| binds | B2 |
| binds | B3 |

biological target: T2, 内源性的ROR2 (293T细胞) (UniProt Q01974 34-943); assay: immunoprecipitation from 293T cell lysate, blot with Santa Cruz ROR2 antibody sc-374174
T2 construct: Whole endogenous protein in cell lysate, used for immunoprecipitation; also called endogenous ROR2 protein of ROR2-positive 293T cells
T2 sequence (Q01974 34-943 limits assumed): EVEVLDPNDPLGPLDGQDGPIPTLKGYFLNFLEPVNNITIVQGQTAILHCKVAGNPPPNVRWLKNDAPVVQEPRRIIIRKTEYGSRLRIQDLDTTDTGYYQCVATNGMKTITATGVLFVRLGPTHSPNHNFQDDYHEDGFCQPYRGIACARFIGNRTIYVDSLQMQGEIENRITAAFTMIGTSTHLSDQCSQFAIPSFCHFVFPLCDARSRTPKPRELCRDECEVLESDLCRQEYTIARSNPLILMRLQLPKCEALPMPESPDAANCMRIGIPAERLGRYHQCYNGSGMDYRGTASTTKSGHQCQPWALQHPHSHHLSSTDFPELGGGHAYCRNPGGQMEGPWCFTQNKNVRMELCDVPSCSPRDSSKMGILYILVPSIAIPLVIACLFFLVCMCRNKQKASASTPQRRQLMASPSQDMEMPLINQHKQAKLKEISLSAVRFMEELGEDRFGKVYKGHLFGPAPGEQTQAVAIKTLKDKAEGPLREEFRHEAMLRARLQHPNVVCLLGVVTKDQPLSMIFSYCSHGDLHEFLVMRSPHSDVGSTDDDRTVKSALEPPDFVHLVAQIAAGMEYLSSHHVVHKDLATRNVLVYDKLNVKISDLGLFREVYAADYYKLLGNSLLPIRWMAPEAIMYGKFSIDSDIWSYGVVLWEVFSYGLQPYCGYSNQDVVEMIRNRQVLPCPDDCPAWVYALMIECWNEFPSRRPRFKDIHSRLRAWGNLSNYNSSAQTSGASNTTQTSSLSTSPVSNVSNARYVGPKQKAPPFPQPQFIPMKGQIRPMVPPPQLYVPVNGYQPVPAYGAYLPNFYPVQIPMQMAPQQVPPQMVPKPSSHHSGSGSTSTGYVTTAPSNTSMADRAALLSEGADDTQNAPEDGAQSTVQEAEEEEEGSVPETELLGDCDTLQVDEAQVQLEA

| binding result | Binder |
| --- | --- |
| binds | B1 |
| binds | B2 |
| binds | B3 |

biological target: T3, ROR2膜蛋白 (UniProt Q01974 34-943, limits assumed); assay: flow cytometry on T47D cells (ROR2 positive) against 231 cells (ROR2 negative), 10ug/ml
T3 construct: whole, on cells; Endogenous ROR2 of T47D cells and of cells from human patients; also called ROR2 on T47D cells; ROR2 on patient blood cancer cells and lymphoma PDX tumour cells
T3 sequence (Q01974 34-943 limits assumed): as above

| binding result | Binder |
| --- | --- |
| binds | B1 |
| binds | B2 |
| binds | B3 |
